These results are taken from IntAct's records for PubMed 7651520.

Sequence of Cell division control protein 42 (Saccharomyces cerevisiae), P19073 C188S (P19073 whole entry C188S): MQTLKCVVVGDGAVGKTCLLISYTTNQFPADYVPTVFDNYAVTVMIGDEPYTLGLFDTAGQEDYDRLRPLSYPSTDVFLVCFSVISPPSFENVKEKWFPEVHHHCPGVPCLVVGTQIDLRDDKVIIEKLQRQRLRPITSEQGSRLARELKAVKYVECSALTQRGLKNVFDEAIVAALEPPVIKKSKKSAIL
Sequence of Cell division control protein 42 (Saccharomyces cerevisiae), P19073 Q61L;C188S (P19073 whole entry Q61L/C188S): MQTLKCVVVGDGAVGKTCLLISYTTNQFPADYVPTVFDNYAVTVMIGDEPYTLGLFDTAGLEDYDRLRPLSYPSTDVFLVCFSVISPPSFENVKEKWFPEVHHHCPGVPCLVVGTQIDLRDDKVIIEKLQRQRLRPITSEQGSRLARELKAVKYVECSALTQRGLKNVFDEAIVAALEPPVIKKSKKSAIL
Sequence of Cell division control protein 42 (Saccharomyces cerevisiae), P19073 G12V;C188S (P19073 whole entry G12V/C188S): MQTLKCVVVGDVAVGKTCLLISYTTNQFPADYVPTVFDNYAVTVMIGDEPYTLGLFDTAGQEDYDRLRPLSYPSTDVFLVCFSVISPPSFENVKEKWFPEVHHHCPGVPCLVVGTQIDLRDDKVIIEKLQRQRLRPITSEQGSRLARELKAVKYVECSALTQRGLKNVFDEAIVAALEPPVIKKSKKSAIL

In the test the target is ste20_yeast STE20 (UniProt Q03497).
Sequence of ste20_yeast STE20 (Q03497 whole entry): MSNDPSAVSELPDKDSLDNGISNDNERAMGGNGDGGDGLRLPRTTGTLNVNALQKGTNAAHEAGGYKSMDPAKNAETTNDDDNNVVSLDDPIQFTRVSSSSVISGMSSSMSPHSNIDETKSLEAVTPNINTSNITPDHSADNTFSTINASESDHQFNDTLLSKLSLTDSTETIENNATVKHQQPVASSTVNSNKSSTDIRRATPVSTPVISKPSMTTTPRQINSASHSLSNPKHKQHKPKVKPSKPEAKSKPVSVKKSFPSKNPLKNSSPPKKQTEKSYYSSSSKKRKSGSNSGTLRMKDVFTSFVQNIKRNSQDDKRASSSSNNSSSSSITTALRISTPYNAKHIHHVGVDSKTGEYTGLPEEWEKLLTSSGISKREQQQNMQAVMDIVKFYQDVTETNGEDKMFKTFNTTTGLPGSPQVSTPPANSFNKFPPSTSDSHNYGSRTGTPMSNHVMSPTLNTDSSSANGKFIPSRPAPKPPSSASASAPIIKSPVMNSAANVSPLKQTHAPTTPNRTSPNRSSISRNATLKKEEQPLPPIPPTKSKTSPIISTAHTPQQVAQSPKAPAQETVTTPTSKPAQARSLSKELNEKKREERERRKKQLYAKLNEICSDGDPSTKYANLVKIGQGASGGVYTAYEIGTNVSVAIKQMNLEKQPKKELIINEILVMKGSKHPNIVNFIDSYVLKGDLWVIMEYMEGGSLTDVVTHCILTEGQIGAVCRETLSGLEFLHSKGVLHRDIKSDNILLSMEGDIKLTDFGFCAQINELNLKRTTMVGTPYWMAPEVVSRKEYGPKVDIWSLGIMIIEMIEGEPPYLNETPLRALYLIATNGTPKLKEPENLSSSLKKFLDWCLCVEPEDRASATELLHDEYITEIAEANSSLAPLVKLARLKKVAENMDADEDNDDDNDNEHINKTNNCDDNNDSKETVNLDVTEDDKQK
Consider “Cell division control protein 42 (Saccharomyces cerevisiae), P19073 C188S”, for which the “effect of a mutation on the interaction” value was “increasing interaction”.
The result for “Cell division control protein 42 (Saccharomyces cerevisiae), P19073 G12V;C188S” reads “increasing interaction”; that for “Cell division control protein 42 (Saccharomyces cerevisiae), P19073 Q61L;C188S”, “increasing interaction”.
